Assay results reported in paper PMC12274614, “Scavenger receptor CD163 multimerises to allow uptake of diverse ligands” (Nature Communications, 2025).

Assays:
[1] = molecular target: haptoglobin Hp(1-1) (human) (UniProt P00738); test: MST; Monolith NT.115, 25 °C, 20 mM HEPES pH 7.5, 150 mM NaCl, […] CaCl2; Alexa Fluor 647-labelled Hb (200 nM) or Hp(1-1) (500 nM or 1.0 μM) held constant, CD163 ectodomain (WT or R809T-BAP) titrated
[2] = molecular target: CD163 ectodomain (CD163-WT) (human) (UniProt Q86VB7)
[3] = molecular target: T1, CD163-WT ectodomain (C-tag, without BAP tag) (human, UniProt Q86VB7-1 46-1050); test: MST; Monolith NT.115, 25 °C; 20 mM HEPES pH 7.5, 150 mM NaCl, 2.5 mM CaCl2; fluorescent Hb (200 nM) or Hp(1-1) (0.50 µM) mixed with two-fold dilution series of CD163 (WT from 24.4 or 37.9 µM, R809T from 41.5 µM); fit to the combined triplicate; details: both partners purified
T1 construct: Cloned into pHLsec with a C-terminal GAA linker and a C-tag; Dimers and trimers in the cryo-EM structures; also called WT CD163; CD163A

CD163 ectodomain (CD163-WT) (from UniProt Q86VB7-1 46-1050) (domain or fragment)
Kd [1]: 27 µM

Hp(2-2)Hb (haptoglobin isoform 2 - haemoglobin complex) (from UniProt P00738-1 19-160; P00738-1 162-406)
IC50 of competition for the uptake of 50 nM labelled Hp(2-2)Hb into HEK293 cells expressing full-length CD163-GFP, FACS [2]: 0.04 µM
uptake of fluorescently labelled Hp(2-2)Hb (0-600 nM) into HEK293 cells with or without full-length CD163-GFP (residues 46-1156), FACS [2]: 10 fold

B1: Haptoglobin Hp(1-1), fluorescently labelled (natural protein)
chain 1: VDSGNDVTDIADDGCPKPPEIAHGYVEHSVRYQCKNYYKLRTEGDGVYTLNNEKQWINKAVGDKLPECEAVCGKPKNPANPVQ
chain 2: ILGGHLDAKGSFPWQAKMVSHHNLTTGATLINEQWLLTTAKNLFLNHSENATAKDIAPTLTLYVGKKQLVEIEKVVLHPNYSQVDIGLIKLKQKVSVNERVMPICLPSKDYAEVGRVGYVSGWGRNANFKFTDHLKYVMLPVADQDQCIRHYEGSTVPEKKTPKSPVGVQPILNEHTFCAGMSKYQEDTCYGDAGSAFAVHDLEEDTWYATGILSFDKSCAVAEYGVYVKVTSIQDWVQKTIAEN
modifications: Alexa Fluor 647 (NHS ester labelling of the protein; sites not stated) | Alexa Fluor 647 (NHS ester labelling of the protein; sites not stated)
Kd [3]: 26.6 µM
